Data on 40 sequences can be found in the nanobody polyreactivity screen of Harvey et al. (2022).

A short description of the series: yeast display, Sf9 membrane polyspecificity reagent, FACS + sequencing; frameworks hold sequencing errors. In short, it runs like this:
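Synthetic nanobody libraries on Saccharomyces cerevisiae BJ5465 were galactose-induced for 36–48 hours, stained 1 hour at 4 °C with 10% biotinylated, detergent-solubilized Sf9 membrane reagent and enriched on streptavidin microbeads. FACS then separated cells into low and high (top ~1%) gates by anti-HA (expression) and streptavidin (reagent binding) fluorescence. Genes were colony-PCR amplified, MiSeq 2 × 250 sequenced and CDR-length filtered. A clone's polyreactivity label is that of its gate of origin.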
In the case of “QVQLVESGGGLVQAGGSLRLSCAASGRTFDRYAMGWYRQAPGKERELVAAITWSGGRTYYADSVKGRFTISRDNAKNTVYLQINSLKPEDTAVYYCAAAPRSYFTSEYWGQGTQVTVSS”, the “polyreactivity (PSR sort gate)” value was “low polyreactivity”.

On to “QVQLVESGGGLVQAGGSLRLSCAASGRTIRHNAMGWYRQARGKERELVGAISRSGGATYYADSVKGRFTISRDNAKNTVYLQMNSLKPEDTAVYYCAAGYHIIYTPEYYYWGQGTQVTVSS”, for which the “polyreactivity (PSR sort gate)” value is given as “high polyreactivity”.

For the sequence “QGQLVESGGGLVQAGGSLRLTCAASGSTFDQNVMGWYRQAPGKERELVDTINFSGDSTYYADSVKGRFTISRDNAKNTVYLQRNSLKPEDTAVYYCAVDWGEYIDTSVKRDISSYWGQGTQVTVSS”, the “polyreactivity (PSR sort gate)” value was “low polyreactivity”.

As to “QVQLVESGGGLVQAGGSLRLSCAASGSIFPDYALGWSRQAPGKESELVAAITRRDDSTYYADSVKGRFTISRDKAKNTVYLQMNSLKPEDTAVYYCNASALDPLYAKDDYWGQGTQVTVSS”, the “polyreactivity (PSR sort gate)” value was “low polyreactivity”.

As to “QVQLVESGGGLVQAGGSLRLSCAASASTFRPYAMGWFRQAPGKEREFVASITWRGGGTYYADSVKGRFTISRDNAKNTVYLQMNSLKPEDTAVFSCAAATQVRGNSLPYGYWGQGTQVTVSS”, the “polyreactivity (PSR sort gate)” value is “high polyreactivity”.

On to “QVQLVESGGGLVQAGGSLRLSCAASGSTIKGYDMGWYRQAPGKERELVAAIDSGGSTYYADSVKGRFTISRDNAKNTVYLQMNSLKPEDTAVFYCAAERVSLYWVIFGYWGQGTQVTVSS”, for which the “polyreactivity (PSR sort gate)” value is “low polyreactivity”.

Take “QVQLVESGGGVVQAGGSLRLSCAASGNIFAVYAMGWYREAPGKERELVAAIRKSGATTYYADSVKGRFTISRDNAKNTVYLQIHSLKPEDTAVYYCAARTFKDAGTAYGSWGQGTQVTVSS”: the “polyreactivity (PSR sort gate)” value was “high polyreactivity”.

As for “QVQLVESGGGLVQAGGSLRLSCAASGFIFVPYALGWYRQAPGKERELVAAISSGGSTYYADSVKGRFTISRDNAKNTVYLQMNSLKPEDTAVYYCNTRYYLYQYRYDYWGQGTQVTVSS”, the “polyreactivity (PSR sort gate)” value was “low polyreactivity”.

On to “QVQLVESGGGLVQAGGSLRLSCAASGRIFNRYAMGWYRQAPGKEREFVAGITWNGGSTYYADSVKGRFTISRDNAKNTVYLQMNSLKPEDTAVYYCAATHYYYGTSRYDYWGQGTQVTVSS”, for which the “polyreactivity (PSR sort gate)” value is reported as “high polyreactivity”.

For the sequence “QVQLVESGGGLVQAGGRLRLSCAASGTIFGPYAMGWYRQAPGKEREFVAAISRSGTRTNYADSVKGRFTISRDNAKNTVYLQMNSLKPEDTAVYYCAAGYYGPDPRNRYRYNYWGQGTQVTVSS”, the “polyreactivity (PSR sort gate)” value is recorded as “high polyreactivity”.

For “QVQLVESGGGLVQAGGSLRLSCAASGLTLTGYAMGWYRQAPGKERELVAAISQDGGNTYYADSVKGRFTISRDNAKNTVYLQMNSLKREDTAVYYCAAVGRAKYYYWGQGTQVTVSS”, the “polyreactivity (PSR sort gate)” value is recorded as “low polyreactivity”.

For “QGQLVESGGGLVQAGGSLRLSCAASGRIFYGNVMGWYRQAPGKERELVADISYDGGSTYYADSVKGRFTISRDNAKNTVYLQMNSLKPEDTAVYYCNKREVFIYGTTYDYWGQGTQVTVSS”, the “polyreactivity (PSR sort gate)” value is on record as “low polyreactivity”.

Consider “QVQLVESGGGLVQAGGSLRLSCAASGSTFYYNAMGWYRQAPGKERELVARISRSGGSTYADSVKGRVTISRDNAKNTVYLQMNSLKPEDTAVYYCNADAYGTPEFTSYAVRYDYWGQGTQVTVSS”, for which the “polyreactivity (PSR sort gate)” value is reported as “low polyreactivity”.

As to “QVQLVESGGGLVQAGGSLRLSCAASGSTFVIYALGWYRQAPGKERELVAALSWSGGRTNYADSVKGRFTISRDNAKNTVYLQLNSLKPEDTAVYYCAAVTGVPYPHGRYKYGYWGQGTQVTVSS”, the “polyreactivity (PSR sort gate)” value is “high polyreactivity”.

Take “QVQLVESGGGLVQAGGSLRLSCAASGSIFRYNAMGWYRKAPGKERELVAAISYRGGSTYYADSVKGRFTISRDNAKITVYLQINSLKPEDTAVYYCAAAVQYSGYRFNYWGQGTQVTVSS”: the “polyreactivity (PSR sort gate)” value is recorded as “high polyreactivity”.

With “QVQLVESGGGLVQAGGSLRLSCAASGSLFGDYVMGWSRQAPGKERELVAAINRGGSTYYADSVKGRFTISRDNAKNTVYLQMNSLKPEDTAVYYGAAGYPSWYYGYPYDSWGQGTQVTVSS”, the “polyreactivity (PSR sort gate)” value was “low polyreactivity”.

Consider “QVQLVESGVGLVQAGGSLRLSCADSGFTFRRYVMGWYRQAPGKERELVAGISASGDSTYYADSVKGRFTISRDYAKNTFYLQMNSLKPEDTAVYYCATVARYRYLESYYWGQGTQVTVSS”, for which the “polyreactivity (PSR sort gate)” value is listed as “high polyreactivity”.

For “QDQLVESAGGLVQAGGSLRLSCAASGSIFTSNAMGWYRQAPGKETELVAAITSSGGSTYYADSVKGRFTISRDNAKNTVYVQMNSLKPEVTAVYYCAGAKFDLSFWLYYWGQGTQVTVSS”, the “polyreactivity (PSR sort gate)” value is listed as “low polyreactivity”.

As for “QVQLVESGGGLEQAGGSIRLNCAASGSTFRYNAMGWYRQARGKERELVAAITWSGGSTYFADSVKGRFTISRDNAKHNVYLQMNSLKAEDTAVYYCAKVYFWGALSPYKYDEDYWGQGTQVTVSS”, the “polyreactivity (PSR sort gate)” value is “low polyreactivity”.

On to “QVQLVESGGGLVQAGGSLRLSCAASGSTFSANAMGWYRQAPGKERELVAAITYRGGNTYYADSVKGRFTISRDNAKNTVYLQMNSLKPEDTAVYYCNRDLRVRYRRMKYGYWGQGTQVTVSS”, for which the “polyreactivity (PSR sort gate)” value is “low polyreactivity”.

For “QVQLVESGGGLVQAGGSLRLSCAASGSTFSVYAMGWYRQAPGKERELVATISWGGGITYYADSVKGRFTISRDNAKNTVYLQMNSLKPEDTAVYYCAKELYSWLPGYRCEGTMDYWGQGTQVTVSS”, the “polyreactivity (PSR sort gate)” value was “high polyreactivity”.

With “QVQLQERGGGLVQAGGSLRLSCAASRIIYADGFMGLYRQAPGKEREFVATITGGGTSNYADSVKGLFTISRDNAKNTVYLQMNSQKPEDTAVYYCAVYFAWTIGFTYWGQGTQVTVSS”, the “polyreactivity (PSR sort gate)” value is reported as “high polyreactivity”.

In the case of “QVQLGESGGGLVKAGGSLRLSCAASGRIFFDYGMGGYRQAPGKERELVADITRGGGSTYYADSVKGRFTISRDNAKNTVYLQINSQKPEDTAVYYCAKESSCYYPQRFDYWGQVTQVTVSS”, the “polyreactivity (PSR sort gate)” value is on record as “low polyreactivity”.

As to “QVQLVDSGGGLVQAGGSLRLSFAASGSTFHTYAMGWYRQAPGTERELVATNTWDGGRTYYADSVKGRFTISRDIAKYTVYLQMNSLKPEDTAVYYCASVYWSIEMDYWGQGSQVTVSS”, the “polyreactivity (PSR sort gate)” value is on record as “low polyreactivity”.

Turning to “QVQLVESGGGLVQAGGSLRFSFAASGINFRFNAMGWYRQAPGKEREFVAAITYSGDSTYYADSVKGRFTISRDNAKNTVFLQMNSLKREDTAVYYCAADYYAISRRIFYYWGQGTQVTVSS”, the “polyreactivity (PSR sort gate)” value is “low polyreactivity”.

For “QVQLVESGGGLVQAGGSLRLSCADSGRTIYSNAMGWNIQAPGKERELVAAITGSSGSTYYADSVKGRFTISRDNAKNTVYLQMYSLKPEDTAVYYCAASCYGSLVRQLRLRGQGTQVTVSS”, the “polyreactivity (PSR sort gate)” value was “low polyreactivity”.

In the case of “QVQLVESGGGLVQAGGSLRLSCAASGSIFSANAMGWYRQAPGKERELVASITGDGSTNYADSVKGRFTISRDNAKNTVYLQMNSLKPEDTAVYYCAADIGSWYDYWGQGTQVTVSS”, the “polyreactivity (PSR sort gate)” value is recorded as “low polyreactivity”.

In the case of “QVQLVESGGGLVQAGGSLRLRCAASAGTFGIYSMGWYRQAPGKEREFVAAISGRGGTTYDADSVKGRFTISRDNAKYTVYLQMNSLKPVDTAVYYWATDSVNVGSNVGDKHDYWGQGTQVTVSS”, the “polyreactivity (PSR sort gate)” value is listed as “low polyreactivity”.

For “QVQLVESGGGLVQAGGRLRLSCAASGSTFKRYVMRLYRQAPGKERELVAAITWSGTRTYYADSVKGRFTISRDNAKNTVYLQMNSLKPEDTAVYYSAAVADRYPYSGYNYYSWGQGTQVTVSS”, the “polyreactivity (PSR sort gate)” value is on record as “high polyreactivity”.

For “QVKIVESVGGLVQSGGSLRLSCAASGRTFHRNARGLYREAPGTEREWVATITTNGGATDYADTVTGRFTSSRDNAKNTFYFHMHSQIPEDTAVYYCSAPFNPRVRPLGSVRMYYWGQGTQVTVSS”, the “polyreactivity (PSR sort gate)” value is given as “low polyreactivity”.

“QVQLVESGGGLVQAGGSLRLSCAASLRTFAWYAMGWYRQAPGKERELVAAITNRGSGTYYADSVKGRFTISRDNAKNTVYLQMNSLKPEDTAVYYCAKDPITATTLDERVFYWGQGTQVTLSS”: the “polyreactivity (PSR sort gate)” value is “low polyreactivity”.

As for “QVQLVESGGGLFQAGGSLRLSCDPSGSIFEYYAMGWYRQAPGKERELVAAITQSGGSTYYADSVKGRFHKFTRQCEEYRLFPDEQPETGRYRGISLAADAECYQNDYALDYWGQGTQVTVSS”, the “polyreactivity (PSR sort gate)” value is given as “low polyreactivity”.

As to “QGQLGEYGGGLVQAGGSLRLSCAAYGRTVYYYAMGWYRQEPGKDREFVAGITATGSSTYYADSVKGRFTISRDNAKNTVYLQMNSLKPEDTAVYFCAADRYTTYSGQWSYPYDYWGQGTQVTVSS”, the “polyreactivity (PSR sort gate)” value is given as “low polyreactivity”.

Turning to “QVQLVESGGGLVQAGGSLRFSCAASGSIFKGNVMGWYRQAPGKERELVAAITWSGGSTYYADSVKGRFTISRDNAKNTVSLQMNSLKPEDTAVYNCNTRWILGRRFYYWGQGTQVTVSS”, the “polyreactivity (PSR sort gate)” value is listed as “high polyreactivity”.

Take “QVQLVESGGGLVQAGGSLRLSCAASGSIFVGYAMGWYRQAPGKEREFVAAISQRGTRTYYADSVKGRFTISRDNAKNTVYLQMNSLKPEDTAVYYCAARGWDQRSDYWGQGTQVIVSS”: the “polyreactivity (PSR sort gate)” value is “high polyreactivity”.

For “QVQLVESGGGLVQAGGSLRLSCAASGYIFKYNAMGWYRQAPGKERELVATIRGGGSTNYADSVKGRFTISRDNAKNTVYLQMNSLKPEDTAVYYCAAVQRYEYGYWGQGTQVTVSS”, the “polyreactivity (PSR sort gate)” value is recorded as “high polyreactivity”.

In the case of “QVQLVESGGGLVQAGGSLRLSCAASGITLEDYDMGWYRQAPGKERELVAAITSGGSTNYADSVKGRFTISRDNAKNTVYLQMNSMKPEDTAVYYCNADFAIRWWYYFGSGYDYWGQGTQVTVSS”, the “polyreactivity (PSR sort gate)” value is recorded as “low polyreactivity”.

With “QVQLVESGGGLVQAGGSLSLSCAASGSNFYYNVMGWYRQAPGKERELVAAISQSGVRTYYADSVKGRFTISRDNAKNTVYLQMNSLKPEDTAVYYCAAKARRLYASSYDYWGQGTQVTVSS”, the “polyreactivity (PSR sort gate)” value is on record as “high polyreactivity”.

With “QVQLVESGGGLVQAGGSLRLSCAASGSIFYGYAMGWYRQAPGKEREFVAGIDSSGGSTSYADSVKGRFTISRDNAKNTVYLQMNSLKPEDTAVYYCNAPDPSDQHGDYWGQGTQVTVSS”, the “polyreactivity (PSR sort gate)” value was “low polyreactivity”.

Take “QVQLVESGGGLVQAGGSLRISCAASGIILGYYPMGWYRQAPGKERELVAAINWSGASTYYADSVKGRFTISRDNAKNTVYLQMNCLKPEDTAVYDCNAVGYYYRGTGEYDYWGQGTQVTVSS”: the “polyreactivity (PSR sort gate)” value was “high polyreactivity”.
